Measurements from patent US20040229298A1.
Several values for one entry are separate records, joined by “and”; a condition that tells them apart may be missing. Equal entries are not always repeated. Ends that are not written are not given here.

Key:
Experiment in all cases: G assay ELISA, 10 uM biotin peptide on anti-GST-captured GST-PDZ
[1] = biological target: GST-AF6 PDZ domain 1 (human)
[2] = biological target: GST-CARD14 PDZ domain 1 (human)
[3] = biological target: GST-CASK PDZ domain 1 (human)
[4] = biological target: GST-DLG1 PDZ domain 1 (human)
[5] = biological target: GST-EBP50 PDZ domain 1, clone #167.2 (human)
[6] = biological target: GST-ERBIN PDZ domain 1 (human)
[7] = biological target: GST-FLJ11215 PDZ domain 1 (human)
[8] = biological target: GST-FLJ12615 PDZ domain 1 (human)
[9] = biological target: GST-INADL PDZ domain 8 (human)
[10] = biological target: GST-KIAA0147 PDZ domain 2 (human)
[11] = biological target: GST-KIAA0316 PDZ domain 1 (human)
[12] = biological target: GST-KIAA0380 PDZ domain 1, clone #25.6 (human)
[13] = biological target: GST-KIAA0561 PDZ domain 1 (human)
[14] = biological target: GST-KIAA0751 PDZ domain 1 (human)
[15] = biological target: GST-KIAA0973 PDZ domain 1, clone #148.5 (human)
[16] = biological target: GST-KIAA1634 PDZ domain 5 (human)
[17] = biological target: GST-LIM-RIL PDZ domain 1 (human)
[18] = biological target: GST-MAGI 1 PDZ domain 4 (human)
[19] = biological target: GST-MUPP1 PDZ domain 10 (human)
[20] = biological target: GST-NSP PDZ domain 1, clone #42.5 (human)
[21] = biological target: GST-RGS12 PDZ domain 1 (human)
[22] = biological target: GST-SITAC-18 PDZ domain 1 (human)
[23] = biological target: GST-Shank 1 PDZ domain 1 (human)
[24] = biological target: GST-Shank 3 PDZ domain 1 (human)
[25] = biological target: GST-Syntrophin gamma 1 PDZ domain 1 (human)
[26] = biological target: GST-TIAM 2 PDZ domain 1 (human)
[27] = biological target: GST-ZO-2 PDZ domain 1 (human)

## WTGRCMSCCRSSRTRRETQL (not fully specified; cysteine pairing not given here) [HPV16 E6 C-terminal PDZ ligand peptide (20 mer, biotinylated), P03126 139-158]
[1]
  Ave OD: 0.444 A450 nm
  OD S/N (ratio to GST only well): 1.8
[2]
  Ave OD: 0.342 A450 nm
  OD S/N (ratio to GST only well): 1.52
[3]
  Ave OD: 0.36 A450 nm
  OD S/N (ratio to GST only well): 1.15
[4]
  Ave OD: 0.391 A450 nm
  OD S/N (ratio to GST only well): 2.98
[5]
  Ave OD: 0.381 A450 nm and 0.355 A450 nm
  OD S/N (ratio to GST only well): 1.94 and 2.28
[6]
  Ave OD: 0.36 A450 nm and 0.342 A450 nm
  OD S/N (ratio to GST only well): 1.82 and 1.3
[7]
  Ave OD: 0.449 A450 nm
  OD S/N (ratio to GST only well): 2.77
[8]
  Ave OD: 0.461 A450 nm
  OD S/N (ratio to GST only well): 2.24
[9]
  Ave OD: 0.388 A450 nm
  OD S/N (ratio to GST only well): 1.58
[10]
  Ave OD: 0.374 A450 nm
  OD S/N (ratio to GST only well): 2.46
[11]
  Ave OD: 0.343 A450 nm
  OD S/N (ratio to GST only well): 2.34
[12]
  Ave OD: 0.376 A450 nm
  OD S/N (ratio to GST only well): 1.95
[13]
  Ave OD: 0.347 A450 nm
  OD S/N (ratio to GST only well): 2.44
[14]
  Ave OD: 0.451 A450 nm
  OD S/N (ratio to GST only well): 2.1
[15]
  Ave OD: 0.378 A450 nm
  OD S/N (ratio to GST only well): 1.68
[16]
  Ave OD: 0.403 A450 nm
  OD S/N (ratio to GST only well): 2.07
[17]
  Ave OD: 0.449 A450 nm
  OD S/N (ratio to GST only well): 1.6
[18]
  Ave OD: 0.395 A450 nm
  OD S/N (ratio to GST only well): 1.2
[19]
  Ave OD: 0.393 A450 nm and 0.392 A450 nm
  OD S/N (ratio to GST only well): 2.03 and 1.96
[20]
  Ave OD: 0.416 A450 nm
  OD S/N (ratio to GST only well): 1.95
[21]
  Ave OD: 0.429 A450 nm
  OD S/N (ratio to GST only well): 3.96
[22]
  Ave OD: 0.398 A450 nm
  OD S/N (ratio to GST only well): 1.63
[23]
  Ave OD: 0.385 A450 nm
  OD S/N (ratio to GST only well): 1.71
[24]
  Ave OD: 0.396 A450 nm
  OD S/N (ratio to GST only well): 2.61
[25]
  Ave OD: 0.358 A450 nm
  OD S/N (ratio to GST only well): 2
[26]
  Ave OD: 0.356 A450 nm
  OD S/N (ratio to GST only well): 2.05
[27]
  Ave OD: 0.342 A450 nm
  OD S/N (ratio to GST only well): 2.11
